Substitutions are numbered along the chain they refer to. Where two headings read alike, the source gives them in different places. Each block holds one binder with its values, some of them ahead of it.
How the values were obtained:
[1] = target: T1, biotinylated human DLL3 protein expressed as a human IgG1 fusion protein (human, UniProt Q9NYJ7 27-492, limits assumed, biotinylated); experiment: Octet BLI, single 50 nM
T1 sequence: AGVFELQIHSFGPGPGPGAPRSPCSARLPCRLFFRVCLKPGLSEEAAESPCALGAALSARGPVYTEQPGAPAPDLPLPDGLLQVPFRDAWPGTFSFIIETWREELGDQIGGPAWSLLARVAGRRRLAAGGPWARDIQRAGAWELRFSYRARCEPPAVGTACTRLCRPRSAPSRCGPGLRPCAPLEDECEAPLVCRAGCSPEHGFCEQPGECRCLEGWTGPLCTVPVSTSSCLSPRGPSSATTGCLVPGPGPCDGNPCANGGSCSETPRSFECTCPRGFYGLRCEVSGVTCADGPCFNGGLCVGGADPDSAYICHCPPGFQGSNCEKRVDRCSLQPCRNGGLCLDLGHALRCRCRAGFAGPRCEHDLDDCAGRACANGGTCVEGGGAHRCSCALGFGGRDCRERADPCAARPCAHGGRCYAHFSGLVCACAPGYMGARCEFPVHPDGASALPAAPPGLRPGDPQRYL
Summary of the method: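 Unpurified trispecific binders in conditioned medium, each at a known concentration, are assayed for affinity to human DLL3.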

[2] = target: T2, human DLL3 on DLL3-expressing tumor cell lines (human, UniProt Q9NYJ7 27-618); experiment: cell-based or functional assay
T2 sequence: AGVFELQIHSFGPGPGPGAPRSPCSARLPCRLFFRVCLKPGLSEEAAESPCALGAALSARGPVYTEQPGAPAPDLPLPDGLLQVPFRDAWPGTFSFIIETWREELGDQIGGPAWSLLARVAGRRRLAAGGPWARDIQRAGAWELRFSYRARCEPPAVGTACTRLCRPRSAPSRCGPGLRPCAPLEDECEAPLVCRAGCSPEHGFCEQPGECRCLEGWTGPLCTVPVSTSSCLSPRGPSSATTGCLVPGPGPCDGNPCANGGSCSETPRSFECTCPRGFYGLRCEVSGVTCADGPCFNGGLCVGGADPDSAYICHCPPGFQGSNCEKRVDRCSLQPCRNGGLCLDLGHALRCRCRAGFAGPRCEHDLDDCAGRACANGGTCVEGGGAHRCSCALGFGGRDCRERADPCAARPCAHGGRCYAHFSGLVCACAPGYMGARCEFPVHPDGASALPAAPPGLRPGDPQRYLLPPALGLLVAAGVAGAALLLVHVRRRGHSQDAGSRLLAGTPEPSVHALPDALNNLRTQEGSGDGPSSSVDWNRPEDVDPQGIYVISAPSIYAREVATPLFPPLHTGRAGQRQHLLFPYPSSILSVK

[3] = target: T2, human DLL3 on DLL3-expressing tumor …; experiment: cell-based or functional assay; remark: listed apart in the source
[4] = target: T2, human DLL3 on DLL3-expressing tumor …; experiment: cell-based or functional assay; remark: listed apart in the source
[5] = target: T1, biotinylated human DLL3 protein …; experiment: Octet BLI, 60/20/6.67/2.22 nM
Procedure: Using the conditioned medium with known concentrations of the anti-DLL3 trispecific proteins, the binding affinities of the anti-DLL3 trispecific proteins toward human DLL3 protein were measured using a method where biotinylated version of human DLL3 protein were expressed as a human IgG1 fusion protein, and the binding affinity measurement was carried out in an Octet instrument with streptavidin tips.

cynomolgus DLL3 = target: T3, cynomolgus DLL3 (cynomolgus, UniProt A0A2K5WSR1 27-490); experiment: Octet BLI, single 60 nM
T3 construct: also called cyDLL3
T3 sequence: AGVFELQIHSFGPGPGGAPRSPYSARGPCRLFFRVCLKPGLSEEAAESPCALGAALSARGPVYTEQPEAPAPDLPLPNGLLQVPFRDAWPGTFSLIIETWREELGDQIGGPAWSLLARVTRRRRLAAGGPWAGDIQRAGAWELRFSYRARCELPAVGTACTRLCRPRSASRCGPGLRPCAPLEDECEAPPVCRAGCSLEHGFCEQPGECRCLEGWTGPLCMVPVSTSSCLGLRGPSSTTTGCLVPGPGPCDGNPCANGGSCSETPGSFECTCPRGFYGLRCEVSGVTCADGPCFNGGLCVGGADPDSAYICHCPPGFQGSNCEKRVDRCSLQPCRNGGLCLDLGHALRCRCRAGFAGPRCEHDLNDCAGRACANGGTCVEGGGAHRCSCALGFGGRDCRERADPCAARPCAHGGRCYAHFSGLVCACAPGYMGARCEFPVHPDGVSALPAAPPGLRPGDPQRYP

B2: 1A011 anti-DLL3 trispecific protein (other)
chain: EVQLVESGGGLVQPGGSLTLSCVASGSTSSINAIGWYRRAPGKQRELVAGISSDGSKVYIDSVKGRFTISRDNAKNSVYLQMNSLRAEDTAVYYCYYFRTVSGSSYRYWGQGTLVTVSS
notes: also called 1A11; not shown: linker 1808, anti-albumin sdAb, linker 1808, anti-CD3 fragment, His6 1819
- Kd [1]: 3.7 nM
- DMS-153 TDCC EC50 [2]: 0.17 nM
- DMS-153 TDCC EC50 [4]: 0.051 nM
- Kd [5]: 3.5 nM
- Kd (cynomolgus DLL3): 3.6 nM

B6: 2E02 anti-DLL3 trispecific protein (other)
chain: B2 chain with S30A, I34M, I60V, Y106Q
notes: not shown: linker 1808, anti-albumin sdAb, linker 1808, anti-CD3 fragment, His6 1819
- Kd [1]: 6 nM
- DMS-153 TDCC EC50 [2]: 0.12 nM
- DMS-153 TDCC EC50 [4]: 0.059 nM
- Kd [5]: 4.4 nM
- Kd (cynomolgus DLL3): 3.4 nM

B7: 2C04 anti-DLL3 trispecific protein (other)
chain: B2 chain with I31R, I34M, V58L, I60A, S102L, Y106M
notes: as for B6
- Kd [1]: 6.8 nM
- DMS-153 TDCC EC50 [2]: 0.043 nM

B10: 3A02 anti-DLL3 trispecific protein (other)
chain: EVQLVESGGGLVQPGGSLTLSCAASGSSVSFLSLAWYRQAPGKKRELVAGISADGSTAYIDSVKGRFTISRDNAKNSVYLQMNSLRAEDTAVYYCYAYRWRTRYTYWGQGTLVTVSS
notes: as for B6
- Kd [1]: 8.1 nM
- Kd [5]: 7.8 nM
- Kd (cynomolgus DLL3): 9.5 nM

B11: 3A011 anti-DLL3 trispecific protein (other)
chain: B10 chain with A53T, A58D
notes: as for B6
- Kd [1]: 6.8 nM
- Kd [5]: 7.3 nM
- Kd (cynomolgus DLL3): 8.8 nM

B12: 4C06 anti-DLL3 trispecific protein (other)
chain: B10 chain with G26N, F31K, L34M, R101S
notes: as for B6
- Kd [1]: 6.8 nM
- DMS-153 TDCC EC50 [4]: 0.068 nM

B15: 4E02 anti-DLL3 trispecific protein (other)
chain: B10 chain with S28Q, L34M, A58V, R101S
notes: as for B6
- Kd [1]: 3.8 nM
- DMS-153 TDCC EC50 [4]: 0.041 nM

B18: 4H04 anti-DLL3 trispecific protein (other)
chain: B10 chain with S30K, L34M, I51V, A58D, R99E, R101T
notes: as for B6
- Kd [1]: 6.1 nM
- DMS-153 TDCC EC50 [4]: 0.051 nM

B22: 3C04 anti-DLL3 trispecific protein (other)
chain: B10 chain with S28H, L34M, S56P, A58D, R101D
notes: as for B6
- Kd [1]: 4.5 nM
- DMS-153 TDCC EC50 [4]: 0.052 nM
- Kd [5]: 4 nM
- Kd (cynomolgus DLL3): 5.7 nM

More lines, now with the values ahead:

- Kd [1]: 3.5 nM
- DMS-153 TDCC EC50 [2]: 0.063 nM
- fold increase in TDCC potency compared to the parental DLL3 binder DH43 [3]: > 7 fold
- DMS-153 TDCC EC50 [4]: 0.028 nM
- Kd [5]: 2.9 nM
- Kd (cynomolgus DLL3): 4.3 nM
B1: 1H012 anti-DLL3 trispecific protein (other)
chain: B2 chain with I34M, I60V, Y106M, R107P
notes: also called 1H12; not shown: linker 1808, anti-albumin sdAb, linker 1808, anti-CD3 fragment, His6 1819

- Kd [1]: 2.4 nM
- DMS-153 TDCC EC50 [4]: 0.19 nM
B3: 2E011 anti-DLL3 trispecific protein (other)
chain: B2 chain with K57S, I60A, T100R, Y106M
notes: as for B6

- Kd [1]: 4.4 nM
- DMS-153 TDCC EC50 [2]: 0.096 nM
- DMS-153 TDCC EC50 [4]: 0.031 nM
- Kd [5]: 4.4 nM
- Kd (cynomolgus DLL3): 5.2 nM
B4: 2H02 anti-DLL3 trispecific protein (other)
chain: B2 chain with I34M, G35A, V48A, I60A, R99H, Y106M
notes: as for B6

- Kd [1]: 3.9 nM
- DMS-153 TDCC EC50 [2]: 0.072 nM
- DMS-153 TDCC EC50 [4]: 0.033 nM
- Kd [5]: 3.5 nM
- Kd (cynomolgus DLL3): 4.8 nM
B5: 2E05 anti-DLL3 trispecific protein (other)
chain: B2 chain with T28P, I34Y, I60S, Y106M, R107S
notes: as for B6

- Kd [1]: 4 nM
- DMS-153 TDCC EC50 [4]: 0.031 nM
B8: 2E010 anti-DLL3 trispecific protein (other)
chain: B2 chain with I34M, G35A, I60A, R99H, Y106M
notes: as for B6

- Kd [1]: 4.1 nM
- DMS-153 TDCC EC50 [4]: 0.033 nM
B9: 2E01 anti-DLL3 trispecific protein (other)
chain: EVQLVESGGGLVQPGGSLTLSCVASGSTSSINAMGWYRRAPFKQGELPAGISPDGTKAYADSAKVRFTISRDNAKNSVYLQMNSLRAEDTAVYYCYYFHTVCGTSMGYWGQGTLVTVSS
notes: as for B6

- Kd [1]: 2.7 nM
- DMS-153 TDCC EC50 [4]: 0.12 nM
B13: 3H011 anti-DLL3 trispecific protein (other)
chain: B10 chain with S30K, L34M, A58V, R101P
notes: as for B6

- Kd [1]: 4.3 nM
- DMS-153 TDCC EC50 [4]: 0.067 nM
B14: 4B07 anti-DLL3 trispecific protein (other)
chain: B10 chain with S30G, L34M, A58V, R101T
notes: as for B6

- Kd [1]: 5.9 nM
- DMS-153 TDCC EC50 [4]: 0.061 nM
B16: 3D07 anti-DLL3 trispecific protein (other)
chain: B10 chain with S30R, L34M, A58D, R99S, R101T
notes: as for B6

- Kd [1]: 8 nM
- DMS-153 TDCC EC50 [4]: 0.12 nM
B17: 3H06 anti-DLL3 trispecific protein (other)
chain: B10 chain with F31Q, L34M, A58D, I60F, R101T, Y104G
notes: as for B6

- Kd [1]: 4.7 nM
- DMS-153 TDCC EC50 [2]: 0.06 nM
- DMS-153 TDCC EC50 [4]: 0.052 nM
- Kd [5]: 8.1 nM
- Kd (cynomolgus DLL3): 8.2 nM
B19: 4D09 anti-DLL3 trispecific protein (other)
chain: B10 chain with S30K, L34M, A58D, D61L, R99E, R101T
notes: as for B6

- Kd [1]: 5.8 nM
- DMS-153 TDCC EC50 [2]: 0.098 nM
B20: 4D011 anti-DLL3 trispecific protein (other)
chain: B10 chain with S30R, L34M, A53V, A58D
notes: also called 4D11; not shown: linker 1808, anti-albumin sdAb, linker 1808, anti-CD3 fragment, His6 1819

- Kd [1]: 3.9 nM
- DMS-153 TDCC EC50 [4]: 0.048 nM
B21: 4B011 anti-DLL3 trispecific protein (other)
chain: B10 chain with S30T, L34M, A58V, R101T, Y104G
notes: as for B6

- Kd [1]: 4.5 nM
- fold increase in TDCC potency compared to the parental DLL3 binder molecule (DH6) [3]: > 8 fold
- DMS-153 TDCC EC50 [4]: 0.036 nM
- Kd [5]: 3.9 nM
- Kd (cynomolgus DLL3): 5.7 nM
B23: 4H011 anti-DLL3 trispecific protein (other)
chain: B10 chain with F31R, L34M, A53V, A58D, R101T, Y104L
notes: also called 4H11; not shown: linker 1808, anti-albumin sdAb, linker 1808, anti-CD3 fragment, His6 1819

Source: patent US20240141072A1 (published 2024)
